Substrate in series [1]: Nc1ncnc2c1ncn2[C@@H]1O[C@H](CO)[C@@H](O)[C@H]1O
Kind of series: stopped-flow absorbance Michaelis-Menten kinetics. In kind it is biochemical, Bos taurus.

Substrate in series [2]: Nc1ncnc2c([C@@H]3O[C@H](CO)[C@@H](O)[C@H]3O)snc12
Kind of series: stopped-flow fluorescence Michaelis-Menten kinetics. In kind it is biochemical, Bos taurus.

Experimental findings from article PMC6467514 are described below.

B1: adenosine deaminase (ADA) (Bos taurus) (protein)
chain: AQTPAFNKPKVELHVHLDGAIKPETILYYGRKRGIALPADTPEELQNIIGMDKPLSLPEFLAKFDYYMPAIAGCREAVKRIAYEFVEMKAKDGVVYVEVRYSPHLLANSKVEPIPWNQAEGDLTPDEVVSLVNQGLQEGERDFGVKVRSILCCMRHQPSWSSEVVELCKKYREQTVVAIDLAGDETIEGSSLFPGHVKAYAEAVKSGVHRTVHAGEVGSANVVKEAVDTLKTERLGHGYHTLEDATLYNRLRQENMHFEVCPWSSYLTGAWKPDTEHPVVRFKNDQVNYSLNTDDPLIFKSTLDTDYQMTKNEMGFTEEEFKRLNINAAKSSFLPEDEKKELLDLLYKAYGMPSPASAEQCL
What is called Km is the substrate concentration at which the rate is half of its maximum. Consider B1, for which the figures for the Michaelis constant (Km) in series [1] and in series [2] were 25.1 ± 3.2 µM and 18.8 ± 3.2 µM, respectively.
